The values that follow come from patent US20190144529A1 (UCB, published 2019).

Substitutions are numbered along the chain they refer to.

B1: CA645 gL4gH27 Fab (Fab, V domains shown)
VH: EVQLLESGGGLVQPGGSLRLSCAVSGIDLSNYAINWVRQAPGKGLEWIGIIWGSGTTFYATWAKGRFTISRDNSKNTVYLQMNSLRAEDTAVYYCARTVPGYSTAPYFDLWGQGTLVTVSS
VL: DIQMTQSPSSVSASVGDRVTITCQSSPSVWSNFLSWYQQKPGKAPKLLIYEASKLTSGVPSRFSGSGSGTDFTLTISSLQPEDFATYYCGGGYSSISDTTFGGGTKVEIK
notes: Fab: human gamma1 CH1, human kappa (Km3); Kabat numbering
B2: CA645 gL4gH28 Fab (Fab, V domains shown)
VH: B1 VH with G53V
VL: B1 VL
notes: as for B1
B3: CA645 gL27gH5 Fab (Fab, V domains shown)
VH: B1 VH with G53A
VL: B1 VL with F33Y
notes: as for B1
B4: CA645 gL14gH5 Fab (Fab, V domains shown)
VH: B1 VH with G53A
VL: B1 VL with S28L
notes: as for B1
B5: CA645 gL4gH39 Fab (Fab, V domains shown)
VH: B1 VH with G53A, G101I
VL: B1 VL
notes: as for B1
B6: CA645 gL4gH30 Fab (Fab, V domains shown)
VH: B1 VH with G53T
VL: B1 VL
notes: as for B1
B7: CA645 gL34gH5 Fab (Fab, V domains shown)
VH: B1 VH with G53A
VL: B1 VL with S94T
notes: as for B1
B8: CA645 gL35gH5 Fab (Fab, V domains shown)
VH: B1 VH with G53A
VL: B1 VL with S94V
notes: as for B1
B9: CA645 gL4gH45 Fab (Fab, V domains shown)
VH: B1 VH with G53A, G101V
VL: B1 VL
notes: as for B1
B10: CA645 gL4gH44 Fab (Fab, V domains shown)
VH: B1 VH with G53A, G101L
VL: B1 VL
notes: as for B1
B11: CA645 gL4gH43 Fab (Fab, V domains shown)
VH: B1 VH with G53A, G101E
VL: B1 VL
notes: as for B1
B12: CA645 gL4gH42 Fab (Fab, V domains shown)
VH: B1 VH with G53A, G101Q
VL: B1 VL
notes: as for B1
B13: CA645 gL10gH5 Fab (Fab, V domains shown)
VH: B1 VH with G53A
VL: B1 VL with S28A
notes: as for B1
B14: CA645 gL12gH5 Fab (Fab, V domains shown)
VH: B1 VH with G53A
VL: B1 VL with S28D
notes: as for B1
B15: CA645 gL4gH29 Fab (Fab, V domains shown)
VH: B1 VH with G53S
VL: B1 VL
notes: as for B1
B16: CA645 gL4gH41 Fab (Fab, V domains shown)
VH: B1 VH with G53A, G101D
VL: B1 VL
notes: as for B1
B17: CA645 gL4gH38 Fab (Fab, V domains shown)
VH: B1 VH with G53A, F58Y
VL: B1 VL
notes: as for B1
B18: CA645 gL4gH40 Fab (Fab, V domains shown)
VH: B1 VH with G53A, G101T
VL: B1 VL
notes: as for B1
B19: CA645 gL13gH5 Fab (Fab, V domains shown)
VH: B1 VH with G53A
VL: B1 VL with S28I
notes: as for B1
B20: CA645 gL4gH32 Fab (Fab, V domains shown)
VH: B1 VH with G53A, S54I
VL: B1 VL
notes: as for B1
B21: CA645 gL23gH5 Fab (Fab, V domains shown)
VH: B1 VH with G53A
VL: B1 VL with S31L
notes: as for B1
B22: CA645 gL4gH35 Fab (Fab, V domains shown)
VH: B1 VH with G53A, S54E
VL: B1 VL
notes: as for B1
B23: CA645 gL4gH31 Fab (Fab, V domains shown)
VH: B1 VH with G53A, S54V
VL: B1 VL
notes: as for B1
B24: CA645 gL15gH5 Fab (Fab, V domains shown)
VH: B1 VH with G53A
VL: B1 VL with S31R
notes: as for B1
B25: CA645 gL20gH5 Fab (Fab, V domains shown)
VH: B1 VH with G53A
VL: B1 VL with S31Q
notes: as for B1
B26: CA645 gL22gH5 Fab (Fab, V domains shown)
VH: B1 VH with G53A
VL: B1 VL with S31H
notes: as for B1
B27: CA645 gL21gH5 Fab (Fab, V domains shown)
VH: B1 VH with G53A
VL: B1 VL with S31E
notes: as for B1
B28: CA645 gL19gH5 Fab (Fab, V domains shown)
VH: B1 VH with G53A
VL: B1 VL with S31D
notes: as for B1
B29: CA645 gL4gH34 Fab (Fab, V domains shown)
VH: B1 VH with G53A, S54Q
VL: B1 VL
notes: as for B1
B30: CA645 gL18gH5 Fab (Fab, V domains shown)
VH: B1 VH with G53A
VL: B1 VL with S31I
notes: as for B1
B31: CA645 gL16gH5 Fab (Fab, V domains shown)
VH: B1 VH with G53A
VL: B1 VL with S31W
notes: as for B1
B32: CA645 gL4gH33 Fab (Fab, V domains shown)
VH: B1 VH with G53A, S54L
VL: B1 VL
notes: as for B1
B33: CA645 gL17gH5 Fab (Fab, V domains shown)
VH: B1 VH with G53A
VL: B1 VL with S31N
notes: as for B1

One experiment addresses T1, human serum albumin (human, UniProt P02768 25-609).
T1 construct: mature; Bought purified serum albumin; also called HSA; Human albumin
The experiment is described as follows: SPR, Fab captured; albumin taken as HSA. On the technique in general: In SPR one partner is held on a chip, and binding of the other changes the refractive index at the surface.
Protocol: (§1) Each assay cycle consisted of firstly capturing the antibody sample using a 1 min injection, before an association phase consisting of a 3 min injection of albumin, after which dissociation was monitored. After each cycle, the capture surface was regenerated with two 1 min injections of 40 mM HCl followed by 30 s of 5 mM NaOH. The flow rates used were 10 μl/min for capture, 30 μl/min for both the association and dissociation phases, and 10 μl/min for regeneration. A blank flow-cell was used for reference subtraction and buffer-blank injections were included to subtract instrument noise and drift.
Regarding B1, the affinity, expressed as Kd, was 1.73 nM; the dissociation rate constant (koff) (as a rule, the rate constant with which the complex falls apart) came out at 8.4e-05 s⁻¹; the kon (commonly the second-order rate constant of association) came out at 48300 M⁻¹ s⁻¹.
Regarding B2, binding was characterised by a dissociation constant (Kd) of 10.6 nM, the off-rate constant (koff) stood at 0.000515 s⁻¹ and the kon was 48500 M⁻¹ s⁻¹.
As to B3, the Kd (commonly the constant that tells how readily two partners part at equilibrium) was determined as 9.44 nM, the off-rate constant (koff) came out at 0.000586 s⁻¹ and the kon was determined as 62100 M⁻¹ s⁻¹.
With B4, the affinity, expressed as Kd, was 1.51 nM; the koff turned out to be 8.7e-05 s⁻¹; the on-rate constant (kon) is 57700 M⁻¹ s⁻¹.
On to B5, for which the Kd was 14 nM, the koff stood at 0.00075 s⁻¹ and the on-rate constant (kon) amounted to 53500 M⁻¹ s⁻¹.
As for B6, binding was put at a Kd of 23.2 nM, the koff is 0.00102 s⁻¹ and the kon was found to be 43800 M⁻¹ s⁻¹.
For B7 the same measures were 3.41 nM, 0.00019 s⁻¹ and 55800 M⁻¹ s⁻¹.
The molecule B8 displayed a Kd of 5.57 nM, an off-rate (koff) of 0.00029 s⁻¹ and a kon of 52100 M⁻¹ s⁻¹.
For B9 the same measures were 8.25 nM, 0.000444 s⁻¹ and 53800 M⁻¹ s⁻¹.
B10 had an equilibrium dissociation constant (Kd) of 4.22 nM, an off-rate (koff) of 0.000226 s⁻¹ and an association rate constant (kon) of 53500 M⁻¹ s⁻¹.
For the molecule B11, the dissociation constant Kd came out at 7.39 nM, the koff turned out to be 0.000391 s⁻¹ and the kon was found to be 52900 M⁻¹ s⁻¹.
On to B12, for which binding was put at a Kd of 4.17 nM, the koff was found to be 0.000222 s⁻¹ and the on-rate (kon) is 53100 M⁻¹ s⁻¹.
For B13, in that order: 1.03 nM, 0.000172 s⁻¹ and 138000 M⁻¹ s⁻¹.
B14: the affinity, expressed as Kd, was 1.88 nM; the off-rate (koff) is 0.000104 s⁻¹; the on-rate (kon) was 55400 M⁻¹ s⁻¹.
As for B15, binding was characterised by a dissociation constant (Kd) of 7.97 nM, the koff came to 0.00038 s⁻¹ and the on-rate constant (kon) worked out at 47700 M⁻¹ s⁻¹.
As for B16, binding was characterised by a dissociation constant (Kd) of 6.54 nM, the koff was 0.000351 s⁻¹ and the kon came to 53700 M⁻¹ s⁻¹.
As to B17, the Kd is 12.2 nM, the koff is 0.000581 s⁻¹ and the kon is 47500 M⁻¹ s⁻¹.
For B18, in that order: 6.4 nM, 0.000356 s⁻¹ and 55600 M⁻¹ s⁻¹.
Consider B19, for which the affinity, expressed as Kd, was 1.88 nM; the off-rate (koff) stood at 0.000108 s⁻¹; the kon came out at 57600 M⁻¹ s⁻¹.

The target in the next experiment is T1, human serum albumin. The experiment is described as follows: SPR, Fab captured; albumin taken as HSA. The source holds these as a separate data set.
Protocol: as §1
For B20, binding was characterised by a dissociation constant (Kd) of 4.38 nM, the dissociation rate constant (koff) worked out at 0.000169 s⁻¹ and the kon is 38600 M⁻¹ s⁻¹.
B21 showed a Kd of 14.8 nM, a koff of 0.000814 s⁻¹ and an on-rate constant (kon) of 54900 M⁻¹ s⁻¹.
In the case of B22, the affinity, expressed as Kd, was 15.1 nM; the off-rate (koff) amounted to 0.000399 s⁻¹; the kon stood at 26500 M⁻¹ s⁻¹.
For B23 the same measures were 4.18 nM, 0.000167 s⁻¹ and 40000 M⁻¹ s⁻¹.
For B24 the same measures were 4.62 nM, 0.000277 s⁻¹ and 60100 M⁻¹ s⁻¹.
Consider B25, for which binding was characterised by a dissociation constant (Kd) of 14.3 nM, the koff was 0.000794 s⁻¹ and the kon came to 55500 M⁻¹ s⁻¹.
Molecule B26 displayed a dissociation constant (Kd) of 8.58 nM, a koff of 0.000478 s⁻¹ and a kon of 55700 M⁻¹ s⁻¹.
Consider B27, for which binding was characterised by a dissociation constant (Kd) of 6.34 nM, the koff is 0.000323 s⁻¹ and the kon stood at 51000 M⁻¹ s⁻¹.
In turn, B28 gave a Kd of 5 nM, a koff of 0.00026 s⁻¹ and an on-rate constant (kon) of 52000 M⁻¹ s⁻¹.
The molecule B29 came in with a Kd of 11 nM, a dissociation rate constant (koff) of 0.000422 s⁻¹ and a kon of 38500 M⁻¹ s⁻¹.
As for B30, the affinity, expressed as Kd, was 15.5 nM; the koff worked out at 0.000823 s⁻¹; the kon came to 53200 M⁻¹ s⁻¹.
In turn, B31 came in with a Kd of 3.06 nM, a koff of 0.000169 s⁻¹ and an association rate constant (kon) of 55300 M⁻¹ s⁻¹.
The molecule B32 gave a Kd of 6.18 nM, an off-rate (koff) of 0.00024 s⁻¹ and a kon of 38900 M⁻¹ s⁻¹.
B33 showed a dissociation constant (Kd) of 5.5 nM, a koff of 0.000323 s⁻¹ and a kon of 58800 M⁻¹ s⁻¹.
